According to paper PMC7616425 (2024):

Tests used:
[1] = target: Alexa647-labeled RhoGDI1 L56V (bovine, UniProt P19803 1-204, L56V, Alexa647 acceptor (site not stated)); test: FRET
[2] = target: Alexa647-labeled RhoGDI1 L56A (bovine, UniProt P19803 1-204, L56A, Alexa647 acceptor (site not stated)); test: FRET

koff [1]: 0.003 s⁻¹
koff [2]: 0.08 s⁻¹
B1: Cy3-labeled, prenylated Cdc42 (natural protein)
chain: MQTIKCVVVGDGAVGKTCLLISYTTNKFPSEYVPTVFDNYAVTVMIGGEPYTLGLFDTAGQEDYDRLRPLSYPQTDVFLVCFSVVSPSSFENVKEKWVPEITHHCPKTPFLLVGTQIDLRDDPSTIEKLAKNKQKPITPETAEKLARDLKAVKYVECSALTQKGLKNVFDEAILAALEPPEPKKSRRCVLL
modifications: prenylated (residue not stated); Cy3 donor (site not stated)
